Results reported in the RNAGym collection of RNA variant scans (doi:10.7554/elife.90254).

B1: LINE1-full (parent)
chain: UACGUAGGUGGUUUUCCCCUGAUAGUGCUAAGGGGGCCUGGAAGUUUGGACUGGGCAGAGCUCAACACAGCGUGGCAAAGUGGCUGUGGCUAGACUGCCUCUCUGGAUUCCUCGUCACUCAGCAGGGCAUCUCUGAGAGAAAUGCC

Variants of: B1
Assay: self-cleavage, relative activity (ratio to wild type); higher = more cleavage; in vitro, sequencing; the parent is a self-cleaving ribozyme

| Variant | self-cleavage |
| --- | --- |
| A117G A124G | 0.69 |
| A117G A129U | 1.29 |
| A117G A140G | 1.48 |
| A117G A142G | 1.25 |
| A117G C118U | 1.44 |
| A117G C145U | 1.33 |
| A117G G126A | 1.96 |
| A117G G127A | 2 |
| A117G G137A | 1.66 |
| A117G U132A | 0.59 |
| A117G U132C | 1.8 |
| A117G U134A | 1.37 |
| A117G U143A | 0.83 |
| A117G U143C | 1.45 |
| A117U | 1.46 |
| A117U A124C | 1.77 |
| A117U A124U | 1.26 |
| A117U A129G | 1.69 |
| A117U A136G | 1.51 |
| A117U A136U | 1.67 |
| A117U A138G | 1.52 |
| A117U A138U | 1.16 |
| A117U A142G | 1.43 |
| A117U C128A | 0.99 |

| Variant | self-cleavage |
| --- | --- |
| A117U C128U | 0.86 |
| A117U C131A | 1.27 |
| A117U G122U | 1.72 |
| A117U G126C | 1.47 |
| A117U G135A | 1.79 |
| A117U G135U | 1.68 |
| A117U U119C | 1.73 |
| A117U U132C | 1.37 |
| A117U U132G | 1.99 |
| A117U U134A | 1.54 |
| A117U U134C | 1.52 |
| A117U U143C | 1.43 |
| C118A | 1.11 |
| C118G | 1.27 |
| C118U | 1.32 |
| C118U A138G | 1.18 |
| C118U A138U | 0.2 |
| C118U C131U | 1.66 |
| C118U U134C | 1.13 |
| C118U U143A | 1.31 |
| U119A A121U | 1.67 |
| U119A A129U | 1.37 |
| U119A A136U | 1.3 |
| U119A A141U | 1.29 |

| Variant | self-cleavage |
| --- | --- |
| U119A A142G | 1.48 |
| U119A G122C | 1.65 |
| U119A G125U | 1.07 |
| U119A G126A | 1.3 |
| U119A U130C | 1.85 |
| U119A U134A | 1.42 |
| U119A U143C | 1.93 |
| U119A U143G | 0.91 |
| U119C A121U | 1.48 |
| U119C A124G | 1.62 |
| U119C A124U | 1.58 |
| U119C A129U | 1.82 |
| U119C A136G | 1.98 |
| U119C A136U | 1.87 |
| U119C A138G | 1.84 |
| U119C A140G | 1.88 |
| U119C A141G | 1.87 |
| U119C A142G | 1.33 |
| U119C A142U | 1.95 |
| U119C C128U | 1.13 |
| U119C C145U | 1.25 |
| U119C C146U | 1.68 |
| U119C G125U | 2.39 |
| U119C G135A | 2.34 |

| Variant | self-cleavage |
| --- | --- |
| U119C G144A | 1.26 |
| U119C U130A | 1.93 |
| U119C U130C | 1.72 |
| U119C U134A | 1.92 |
| U119C U143C | 1.49 |
| U119G A138G | 2.33 |
| U119G A141G | 1.57 |
| U119G U134C | 1.76 |
| U119G U143A | 0.95 |
| C120A A142G | 0.91 |
| C120A G139U | 1.59 |
| C120A U134C | 1.65 |
| C120G A129G | 1.23 |
| C120U A124G | 1.26 |
| C120U A129G | 1.84 |
| C120U A141G | 1.32 |
| C120U A142G | 1.59 |
| C120U A142U | 1.52 |
| C120U C123A | 1.78 |
| C120U G127A | 1.48 |
| A121C | 1.51 |
| A121C A129G | 1.23 |
| A121C A129U | 1.9 |
| A121C A136G | 1.72 |

| Variant | self-cleavage |
| --- | --- |
| A121C C146U | 1.77 |
| A121C G127A | 1.8 |
| A121C U134A | 0.84 |
| A121G | 1.56 |
| A121G A124G | 0.97 |
| A121G A129G | 1.58 |
| A121G A129U | 1.59 |
| A121G A136G | 1.65 |
| A121G A138C | 1.71 |
| A121G A138G | 1.86 |
| A121G A138U | 1.59 |
| A121G A140G | 1.84 |
| A121G A141G | 1.65 |
| A121G A142G | 1.48 |
| A121G C128U | 1.6 |
| A121G C145A | 1.6 |
| A121G C146U | 1.39 |
| A121G G122A | 1.46 |
| A121G G125A | 1.29 |
| A121G G126A | 1.24 |
| A121G G127A | 1.74 |
| A121G G144A | 1.91 |
| A121G U130A | 1.25 |
| A121G U130C | 1.14 |

| Variant | self-cleavage |
| --- | --- |
| A121G U132C | 1.58 |
| A121G U134C | 1.88 |
| A121G U134G | 1.58 |
| A121G U143A | 0.91 |
| A121G U143G | 0.5 |
| A121U | 1.34 |
| A121U A124C | 1.14 |
| A121U A129U | 1.41 |
| A121U A138C | 1.56 |
| A121U A138G | 1.56 |
| A121U A141G | 1.24 |
| A121U A142G | 1.4 |
| A121U A142U | 1.03 |
| A121U C131U | 0.58 |
| A121U G122A | 0.27 |
| A121U G125A | 1.23 |
| A121U G125C | 1.28 |
| A121U G126A | 0.83 |
| A121U U132A | 1.36 |
| A121U U134C | 1.35 |
| A121U U143G | 2 |
| G122A A138G | 0.78 |
| G122A A140G | 0.53 |
| G122A A140U | 1.47 |

| Variant | self-cleavage |
| --- | --- |
| G122A A142G | 0.42 |
| G122A U130A | 2.13 |
| G122A U130C | 1.91 |
| G122A U134C | 1.43 |
| G122A U143C | 1.11 |
| G122C A136U | 1.96 |
| G122C A140G | 1.36 |
| G122C U134C | 1.68 |
| G122U C123U | 0.8 |
| G122U G125C | 2.14 |
| G122U U130C | 1.21 |
| C123A | 1.19 |
| C123A A140G | 1.42 |
| C123A A141G | 1.35 |
| C123A U134C | 1.04 |
| C123G | 1.36 |
| C123G A124G | 0.74 |
| C123G A140U | 1.27 |
| C123G C133A | 1.46 |
| C123G U132C | 1.43 |
| C123U | 1.16 |
| C123U A136G | 1.49 |
| C123U A138G | 1.91 |
